Laboratory results published in paper PMC4278676.

Substrate: Nc1ncnc2c1ncn2[C@@H]1O[C@H](COP(=O)(O)OP(=O)(O)OP(=O)(O)O)[C@@H](O)[C@H]1O
Test: purified protein
Conditions: co-substrate Co(II)Cbi^+

B1: SeCobA (Salmonella enterica subsp. enterica serovar Typhimurium str. LT2) (protein)
chain: MSDERYQQRQQKVKDRVDARVAQAQEERGIIIVFTGNGKGKTTAAFGTAARAVGHGKNVGVVQFIKGTWPNGERNLLEPHGVEFQVMATGFTWETQNREADTAACMAVWQHGKRMLADPLLDMVVLDELTYMVAYDYLPLEEVISALNARPGHQTVIITGRGCHRDILDLADTVSELRPVKHAFDAGVKAQMGIDY
Protein B1 has a Km of 25.4 ± 9.0 µM, a kcat of 0.0067 s⁻¹ and a kcat/Km of 260 M⁻¹ s⁻¹.
